Experiments:
[1] = target: T1, sushi1 domain of GABABR1a (Homo sapiens, UniProt Q9UBS5); assay: BioLayer Interferometry binding of sAPPα to sushi domains
T1 construct: made in house
Excerpt: (§1) We first determined which GABAB subunit and isoform sAPPα bound. The GABABR is comprised of two subunits, the GABABR1 and the GABABR2 subunit. GABABR1 is present as two main isoforms (1a and 1b), with the only difference between these isoforms being the presence of two protein-binding sushi repeats in the ectodomain of GABABR1a (FIG. 1A-B). […] The sequence of the Sushi domain 1 is […].

[2] = target: T1, sushi1 domain of GABABR1a; assay: Isothermal titration calorimetry (ITC) with purified sushi1; assay type: binding; conditions: 25° C., read-out: dissociation constant (KD)
Method: as §1
All ITC experiments were carried out on a MicroCal iTC200 system. For ITC experiments involving APP constructs expressed in HEK293 cells, the purified GABABR1a-Sushi1 domain, sAPPα, CuBDAcD, AcD and CuBD constructs were buffer-exchanged by size exclusion chromatography in 20 mM Na-HEPES pH 7.0, 150 mM NaCl supplemented with 5 mM CaCl2. Concentrated samples were diluted and degassed before the experiment at the concentrations reported in the FIG. legends. sAPP fragments (all of them at 30 μM) were placed in the MicroCal sample cell and matching buffer was placed in the reference cell. Sushi1 (300 μM) was in the syringe and was injected into the cell in a series of 1 μL injections at 25° C. All the datasets were subtracted with a reference data consisting of serial injections of Sushi1 in the cell, containing buffer only under the same conditions. For ITC experiments involving synthetic APP peptides, the Sushi-1 protein was dialysed overnight to PBS buffer. […]

[3] = test system: Schaffer collateral (SC) synapses in mouse hippocampus; assay: fEPSP field recordings at Schaffer collateral synapses in hippocampal slices; assay type: cell-based
Method: We assessed the effect of sAPPα on the synaptic properties of Schaffer collateral (SC) synapses in mouse hippocampus. […] As change in probability of neurotransmitter release inversely correlates with a change in short-term facilitation, we applied a burst of 5 stimuli at 3 different frequencies (20, 50, and 100 Hz) to induce short-term facilitation at the SC. […] Preincubation with the GABABR antagonist CGP54626 (CGP, 10 μM) for 20 min before the incubation with sAPPα blocked its effects on the peak amplitude of the fESPS and the input/output slopes (FIG. 10f-g). Accordingly, CGP occluded sAPPα-induced augmentation of short-term facilitation at 20, 50, and 100 Hz burst frequencies (FIG. 10h-j).
On the day of recording the brain of a 2-month-old Balb/c male mouse was quickly removed and 400 μm-thick horizontal slices were prepared in an ice-cold oxygenated buffer containing (in mM): sucrose, 182; KCl, 2.5; MgSO4, 2; NaH2PO4, 1.25; NaHCO3, 25; CaCl2), 0.8; MgCl2, 5; glucose, 25; ascorbate, 1; HEPES, 20. The slicing procedure was performed using a Leica VT1200 vibrating microtome. Slices were then transferred to a submerged recovery chamber at room temperature containing oxygenated (95% 02 and 5% C02) storage artificial cerebrospinal fluid (ACSF) for 30 min before the incubations (see below). The storage ACSF contained, in mM: NaCl, 100; KCl, 2.5; MgSO4, 2; NaH2PO4, 1.25; NaHCO3, 25; CaCl2), 1.2; MgCl2, 3; glucose, 20; ascorbate, 1; sodium pyruvate,3 and HEPES, 20. The slices were incubated in the incubation chambers perfused with oxygenated storage ACSF containing the experimental agents for 90 min before performing field recordings: In the incubation chamber, control slices were perfused with normal storage ACSF while sAPPα slices were perfused with storage ACSF containing 1 μM sAPPα. CGP slices were perfused with storage ACSF containing 10 μM CGP54626 (Tocris). CGP+sAPPα slices were preincubated in the chamber perfused with ACSF+CGP before being transferred into the chamber perfused with storage ACSF implemented with 10 μM CGP54626+1 μM sAPPα. All recordings were performed at 32-33° C. in a recording chamber perfused with ACSF (4 ml/min) on the stage of an Olympus BX51WI microscope equipped with IR optics and oblique illumination. Recording ACSF contains, in mM: NaCl, 129; KCl, 2.5; CaCl2), 1.2; MgCl2, 1.2; NaHCO3, 25; NaH2PO4, 1.25; glucose, 15. Stimulation of the Schaffer-collateral was delivered through a glass suction electrode (10-20 μm tip) filled with ACSF. fEPSPs were recorded using a glass pipette containing ACSF (1-2 MΩ) from proximal synapses in the CA1 stratum radiatum. Field recording experiments were analyzed using Clampfit.

T1 sequence (Q9UBS5 26-97): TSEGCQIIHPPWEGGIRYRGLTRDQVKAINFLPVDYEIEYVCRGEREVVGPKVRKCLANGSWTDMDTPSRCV

binding of sAPPα to Sushi 1 domain by BioLayer Interferometry [1]: direct binding
Kd [2]: 431 nM
B1: sAPPα: soluble amyloid precursor protein α ectodomain; mouse APP695 18-612aa, Fc tag cleaved (protein)
chain: LEVPTDGNAGLLAEPQIAMFCGKLNMHMNVQNGKWESDPSGTKTCIGTKEGILQYCQEVYPELQITNVVEANQPVTIQNWCKRGRKQCKTHTHIVIPYRCLVGEFVSDALLVPDKCKFLHQERMDVCETHLHWHTVAKETCSEKSTNLHDYGMLLPCGIDKFRGVEFVCCPLAEESDSVDSADAEEDDSDVWWGGADTDYADGGEDKVVEVAEEEEVADVEEEEADDDEDVEDGDEVEEEAEEPYEEATERTTSTATTTTTTTESVEEVVRVPTTAASTPDAVDKYLETPGDENEHAHFQKAKERLEAKHRERMSQVMREWEEAERQAKNLPKADKKAVIQHFQEKVESLEQEAANERQQLVETHMARVEAMLNDRRRLALENYITALQAVPPRPHHVFNMLKKYVRAEQKDRQHTLKHFEHVRMVDPKKAAQIRSQVMTHLRVIYERMNQSLSLLYNVPAVAEEIQDEVDELLQKEQNYSDDVLANMISEPRISYGNDALMPSLTETKTTVELLPVNGEFSLDDLQPWHPFGVDSVPANTENEVEPVDARPAADRGLTTRPGSGLTNIKTEEISEVKMDAEFGHDSGFEVRHQK
effect on fEPSP amplitude ([3]; 1 μM sAPPα incubation, 0.1 Hz stimulation): reducing fEPSP amplitude
decrease in the slope of the input/output curve ([3]; 1 μM sAPPα incubation, 0.1 Hz stimulation, 30-150 μA): 23%
short-term facilitation versus control slices ([3]; burst of 5 stimuli at 20, 50 and 100 Hz, 1 μM sAPPα): significantly higher
